In patent US20250243282A1:

Target: Recombinant human Gal3 (rhGal3) (TrueBinding, #QC200361) (human) (UniProt P17931)
Assay: cell-based or functional assay

MOPC21-hIgG4 (S228P) isotype control (antibody)
% inhibition of CD62L shedding: 21.1%
